Laboratory results: patent US20220119477A1 (published 2022)

T1: WT1 peptide on HLA-A*02:01 (human)
T1 peptide: VLDFAPPGA


Target: T1, WT1 peptide on HLA-A*02:01
Test: multimer staining

Binder | binding result
TCR of Patient 3, alpha 2 and beta (TCR, V domains shown) Valpha: GQQLNQSPQSMFIQEGEDVSMNCTSSSIFNTWLWYKQEPGEGPVLLIALYKAGELTSNGRLTAQFGITRKDSFLNISASIPSDVGIYFCAGLYATNKLIFGTGTLLAVQP Vbeta: DSGVTQTPKHLITATGQRVTLRCSPRSGDLSVYWYQQSLDQGLQFLIQYYNGEERAKGNILERFSAQQFPDLHSELNLSSLELGDSALYFCASSVSAGSTGELFFGEGSRLTVL | recognises
TCR of Patient 2, alpha 1 and beta 2 (TCR, V domains shown) Valpha: AQSVTQLDSQVPVFEEAPVELRCNYSSSVSVYLFWYVQYPNQGLQLLLKYLSGSTLVESINGFEAEFNKSQTSFHLRKPSVHISDTAEYFCAVTLLSIEPSAGGYQKVTFGIGTKLQVIP Vbeta: DAMVIQNPRYQVTQFGKPVTLSCSQTLNHNVMYWYQQKSSQAPKLLFHYYDKDFNNEADTPDNFQSRRPNTSFCFLDIRSPGLGDAAMYLCATSWGLNEQYFGPGTRLTVT | recognises
TCR of Patient 2, alpha 2 and beta 1 (TCR, V domains shown) Valpha: GENVEQHPSTLSVQEGDSAVIKCTYSDSASNYFPWYKQELGKRPQLIIDIRSNVGEKKDQRIAVTLNKTAKHFSLHITETQPEDSAVYFCAATSRDDMRFGAGTRLTVKP Vbeta: DTGVSQNPRHKITKRGQNVTFRCDPISEHNRLYWYRQTLGQGPEFLTYFQNEAQLEKSRLLSDRFSAERPKGSFSTLEIQRTEQGDSAMYLCASSLEGRAMPRDSHQETQYFGPGTRLLVL | recognises

The next lines start with the values.

binding result | Binder
recognises | TCR of Patient 3, alpha 1 and beta (TCR, V domains shown) Valpha: AQKVTQAQTEISVVEKEDVTLDCVYETRDTTYYLFWYKQPPSGELVFLIRRNSFDEQNEISGRYSWNFQKSTSSFNFTITASQVVDSAVYFCALPDKVIFGPGTSLSVIP Vbeta: DSGVTQTPKHLITATGQRVTLRCSPRSGDLSVYWYQQSLDQGLQFLIQYYNGEERAKGNILERFSAQQFPDLHSELNLSSLELGDSALYFCASSVSAGSTGELFFGEGSRLTVL
recognises | TCR of Patient 1, alpha 1 and beta (growing colony) (TCR, V domains shown) Valpha: AQSVAQPEDQVNVAEGNPLTVKCTYSVSGNPYLFWYVQYPNRGLQFLLKYITGDNLVKGSYGFEAEFNKSQTSFHLKKPSALVSDSALYFCAVRDGGATNKLIFGTGTLLAVQP Vbeta: EAQVTQNPRYLITVTGKKLTVTCSQNMNHEYMSWYRQDPGLGLRQIYYSMNVEVTDKGDVPEGYKVSRKEKRNFPLILESPSPNQTSLYFCASSTLGGELFFGEGSRLTVL
recognises | TCR of Patient 2, alpha 1 and beta 1 (TCR, V domains shown) Valpha: AQSVTQLDSQVPVFEEAPVELRCNYSSSVSVYLFWYVQYPNQGLQLLLKYLSGSTLVESINGFEAEFNKSQTSFHLRKPSVHISDTAEYFCAVTLLSIEPSAGGYQKVTFGIGTKLQVIP Vbeta: DTGVSQNPRHKITKRGQNVTFRCDPISEHNRLYWYRQTLGQGPEFLTYFQNEAQLEKSRLLSDRFSAERPKGSFSTLEIQRTEQGDSAMYLCASSLEGRAMPRDSHQETQYFGPGTRLLVL
recognises | TCR of Patient 2, alpha 2 and beta 2 (TCR, V domains shown) Valpha: GENVEQHPSTLSVQEGDSAVIKCTYSDSASNYFPWYKQELGKRPQLIIDIRSNVGEKKDQRIAVTLNKTAKHFSLHITETQPEDSAVYFCAATSRDDMRFGAGTRLTVKP Vbeta: DAMVIQNPRYQVTQFGKPVTLSCSQTLNHNVMYWYQQKSSQAPKLLFHYYDKDFNNEADTPDNFQSRRPNTSFCFLDIRSPGLGDAAMYLCATSWGLNEQYFGPGTRLTVT
